In the RNAGym collection of RNA variant scans (doi:10.1093/molbev/msab373):

B1: Azoarcus group I ribozyme (parent)
chain: GUGCCUUGCGCCGGGAAACCACGCAAGGGAUGGUGUCAAAUUCGGCGAAACCUAAGCGCCCGCCCGGGCGUAUGGCAACGCCGAGCCAAGCUUCGGCGCCUGCGCCGAUGAAGGUGUAGAGACUAGACGGCACCCACCUAAGGCAAACGCUAUGGUGAAGGCAUAGUCCAGGGAGUGGCGAAAGUCACACAAACCGG

Variants of: B1
Experiment: reverse-splicing fitness (ratio to wild type); higher = more active; in vitro selection; Mg2+ level not given
Procedure, shortened: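 An in vitro group I ribozyme library with randomized positions was T7-transcribed and gel-purified. In triplicate, 10 pmol RNA in EPPS pH 7.5 was reacted with 50 pmoles of a 30-nt RNA substrate for 1 h at 37 °C across several added MgCl2 levels (1–48 mM), then stopped with EDTA. Products were reverse transcribed from a substrate-complementary primer, PCR-amplified and sequenced (HiSeq 4000). Fitness is a variant's read proportion after selection over that before, normalised to wild type.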

Q: Which reverse-splicing fitness does the source give for C82G A111C A120U A145C C169A U176G here?
A: 0.00216

Q: With C82G A111C A120G A145G U176G as the variant, how does the reverse-splicing fitness read?
A: 0.00675

Q: Which reverse-splicing fitness does the source give for C82G A111C A120G A145G U176A here?
A: 0.017

Q: Which reverse-splicing fitness does the source give for C82G A111C A120G A145G U176C here?
A: 0.0204

Q: For C82G A111C A120G A145G C150G U176A, which reverse-splicing fitness is on record?
A: 0.00732

Q: With C82G A111C A120G A145G C150G U176C as the variant, how does the reverse-splicing fitness read?
A: 0.0113

Q: For C82G A111C A120G A145G C150G U176G, which reverse-splicing fitness is on record?
A: 0.00597

Q: For C82G A111C A120G C150U C169U U176C, which reverse-splicing fitness is on record?
A: 0.0156

Q: With C82G A111C A120G C150U C169U U176G as the variant, how does the reverse-splicing fitness read?
A: 0.00546

Q: Which reverse-splicing fitness does the source give for C82G A111C A120G C150U C169U U176A here?
A: 0.0146

Q: For C82G A111C A120G C150G C169A U176G, which reverse-splicing fitness is on record?
A: 0.00686

Q: With C82G A111C A120G C150G C169A U176C as the variant, how does the reverse-splicing fitness read?
A: 0.0102

Q: With C82G A111C A120G C150G C169A U176A as the variant, how does the reverse-splicing fitness read?
A: 0.00915

Q: With C82G A111C A120G A145G C150A C169G as the variant, how does the reverse-splicing fitness read?
A: 0.00949

Q: Which reverse-splicing fitness does the source give for C82G A111C A120G A145G C150A C169A here?
A: 0.0104

Q: With C82G A111C A120G A145G C150A C169U as the variant, how does the reverse-splicing fitness read?
A: 0.00904

Q: Which reverse-splicing fitness does the source give for C82G A111C A120U A145C C169A here?
A: 0.00204

Q: Which reverse-splicing fitness does the source give for C82G A111C A120U A145C C169G here?
A: 0.00323

Q: For C82G A111C A120U A145C C169U, which reverse-splicing fitness is on record?
A: 0.00341

Q: With C82G A111C A120G A145U C150G C169U U176G as the variant, how does the reverse-splicing fitness read?
A: 0.00536

Q: For C82G A111C A120G A145U C150G C169U U176C, which reverse-splicing fitness is on record?
A: 0.0118

Q: With C82G A111C A120G A145U C150G C169U U176A as the variant, how does the reverse-splicing fitness read?
A: 0.00847

Q: With C82G A111C A120U A145G C150A C169A U176C as the variant, how does the reverse-splicing fitness read?
A: 0.00453

Q: With C82G A111C A120U A145G C150A C169A U176G as the variant, how does the reverse-splicing fitness read?
A: 0.0032

Q: For C82G A111C A120U A145G C150A C169A U176A, which reverse-splicing fitness is on record?
A: 0.00791

Q: For C82G A111C A120U A145C U176G, which reverse-splicing fitness is on record?
A: 0.00462

Q: Which reverse-splicing fitness does the source give for C82G A111C A120U A145C U176C here?
A: 0.013

Q: With C82G A111C A120U A145C U176A as the variant, how does the reverse-splicing fitness read?
A: 0.0111

Q: With C82G A111C A120G A145C C150U C169A U176G as the variant, how does the reverse-splicing fitness read?
A: 0.00557

Q: For C82G A111C A120G A145C C150U C169A U176A, which reverse-splicing fitness is on record?
A: 0.0113

Q: Which reverse-splicing fitness does the source give for C82G A111C A120G A145C C150U C169A U176C here?
A: 0.00666

Q: For C82G A111C A120U A145C C150G C169G U176G, which reverse-splicing fitness is on record?
A: 0.00233

Q: With C82G A111C A120U A145C C150G C169G U176C as the variant, how does the reverse-splicing fitness read?
A: 0.00245

Q: With C82G A111C A120U A145C C150G C169G U176A as the variant, how does the reverse-splicing fitness read?
A: 0.00317

Q: For C82G A111C A120G A145G C150U C169A U176G, which reverse-splicing fitness is on record?
A: 0.00695

Q: For C82G A111C A120G A145G C150U C169A U176C, which reverse-splicing fitness is on record?
A: 0.0147

Q: With C82G A111C A120G A145G C150U C169A U176A as the variant, how does the reverse-splicing fitness read?
A: 0.0152

Q: Which reverse-splicing fitness does the source give for C82G A111C A120G A145U C150U C169A here?
A: 0.0101

Q: With C82G A111C A120G A145U C150U C169G as the variant, how does the reverse-splicing fitness read?
A: 0.0113

Q: With C82G A111C A120G A145U C150U C169U as the variant, how does the reverse-splicing fitness read?
A: 0.00896

Q: With C82G A111C A120G C150G C169G U176A as the variant, how does the reverse-splicing fitness read?
A: 0.00677

Q: Which reverse-splicing fitness does the source give for C82G A111C A120G C150G C169G U176C here?
A: 0.00508

Q: For C82G A111C A120G C150G C169G U176G, which reverse-splicing fitness is on record?
A: 0.00467

Q: Which reverse-splicing fitness does the source give for C82G A111C A120U A145C C150U C169U U176C here?
A: 0.00256

Q: With C82G A111C A120U A145C C150U C169U U176G as the variant, how does the reverse-splicing fitness read?
A: 0.00249

Q: Which reverse-splicing fitness does the source give for C82G A111C A120U A145C C150U C169U U176A here?
A: 0.00337

Q: For C82G A111C A120U A145G C150A C169U U176A, which reverse-splicing fitness is on record?
A: 0.00632

Q: For C82G A111C A120U A145G C150A C169U U176G, which reverse-splicing fitness is on record?
A: 0.00259

Q: Which reverse-splicing fitness does the source give for C82G A111C A120U A145G C150A C169U U176C here?
A: 0.00449

Q: Which reverse-splicing fitness does the source give for C82G A111C A120U A145G C150U C169A U176G here?
A: 0.00301

Q: For C82G A111C A120U A145G C150U C169A U176C, which reverse-splicing fitness is on record?
A: 0.00436

Q: Which reverse-splicing fitness does the source give for C82G A111C A120U A145G C150U C169A U176A here?
A: 0.00776

Q: For C82G A111C A120G A145U C150U C169U U176C, which reverse-splicing fitness is on record?
A: 0.0139

Q: Which reverse-splicing fitness does the source give for C82G A111C A120G A145U C150U C169U U176G here?
A: 0.00531

Q: For C82G A111C A120G A145U C150U C169U U176A, which reverse-splicing fitness is on record?
A: 0.0143

Q: With C82G A111C A120U A145G C150G C169G U176G as the variant, how does the reverse-splicing fitness read?
A: 0.00427

Q: With C82G A111C A120U A145G C150G C169G U176A as the variant, how does the reverse-splicing fitness read?
A: 0.00983

Q: For C82G A111C A120U A145G C150G C169G U176C, which reverse-splicing fitness is on record?
A: 0.00829

Q: Which reverse-splicing fitness does the source give for C82G A111C A120U A145C C150U C169G here?
A: 0.00299

Q: Which reverse-splicing fitness does the source give for C82G A111C A120U A145C C150U C169A here?
A: 0.00304

Q: For C82G A111C A120U A145C C150U C169U, which reverse-splicing fitness is on record?
A: 0.003

Q: For C82G A111C A120G A145G C150G C169U U176A, which reverse-splicing fitness is on record?
A: 0.0106

Q: With C82G A111C A120G A145G C150G C169U U176G as the variant, how does the reverse-splicing fitness read?
A: 0.00731

Q: Which reverse-splicing fitness does the source give for C82G A111C A120G A145G C150G C169U U176C here?
A: 0.0127

Q: With C82G A111C A120U A145G C150A C169G as the variant, how does the reverse-splicing fitness read?
A: 0.0054

Q: Which reverse-splicing fitness does the source give for C82G A111C A120U A145G C150A C169U here?
A: 0.00514

Q: With C82G A111C A120U A145G C150A C169A as the variant, how does the reverse-splicing fitness read?
A: 0.00787

Q: With C82G A111C A120G A145U as the variant, how does the reverse-splicing fitness read?
A: 0.0164

Q: Which reverse-splicing fitness does the source give for C82G A111C A120G A145G here?
A: 0.014

Q: For C82G A111C A120G C169G U176A, which reverse-splicing fitness is on record?
A: 0.0184

Q: With C82G A111C A120G C169G U176G as the variant, how does the reverse-splicing fitness read?
A: 0.0044

Q: With C82G A111C A120G C169G U176C as the variant, how does the reverse-splicing fitness read?
A: 0.0224

Q: For C82G A111C A120U A145G C150G C169U U176C, which reverse-splicing fitness is on record?
A: 0.00748

Q: Which reverse-splicing fitness does the source give for C82G A111C A120U A145G C150G C169U U176A here?
A: 0.00988

Q: Which reverse-splicing fitness does the source give for C82G A111C A120U A145G C150G C169U U176G here?
A: 0.00438

Q: For C82G A111C A120G A145U U176G, which reverse-splicing fitness is on record?
A: 0.00575

Q: Which reverse-splicing fitness does the source give for C82G A111C A120G A145U U176A here?
A: 0.016

Q: With C82G A111C A120G A145U U176C as the variant, how does the reverse-splicing fitness read?
A: 0.0232

Q: For C82G A111C A120G C150G C169U U176A, which reverse-splicing fitness is on record?
A: 0.0081

Q: With C82G A111C A120G C150G C169U U176G as the variant, how does the reverse-splicing fitness read?
A: 0.00589

Q: With C82G A111C A120G C150G C169U U176C as the variant, how does the reverse-splicing fitness read?
A: 0.0132

Q: Which reverse-splicing fitness does the source give for C82G A111C A120G A145U C150U C169A U176A here?
A: 0.0109

Q: With C82G A111C A120G A145U C150U C169A U176C as the variant, how does the reverse-splicing fitness read?
A: 0.0109

Q: Which reverse-splicing fitness does the source give for C82G A111C A120G A145U C150U C169A U176G here?
A: 0.006
